Values of other authors in PMC7431755, “Automated high-content imaging for cellular uptake, from the Schmuck cation to the latest cyclic oligochalcogenides” (Beilstein Journal of Organic Chemistry, 2020).
Where two headings read alike, the source gives them in different places.

Tested on: HGM cells
Protocol: The CP50 value of 7.3 ± 0.5 µM obtained for 25 outperformed the CP50 value of 14.9 ± 0.5 μM of the previously reported cell-penetrating streptavidin, in which four asparagusic acids are covalently bound to the protein through irreversible triazole linkages. The CP50 value of 7.3 ± 0.5 µM of 25 was not far above the CP50 value of 3.1 ± 0.5 µM of HIV Tat, the original CPP [55]. As the uptake efficiency generally decreases with the size, this similarity is particularly impressive, considering that the COC carrying a 52 kDa protein is compared to a small undecapeptide.

Substance | CP50 (CAPA) [µM] | CP50 [µM]
HIV Tat: the original CPP, a small undecapeptide | 3.1 ± 0.5 | 
cell-penetrating streptavidin: previously reported streptavidin with four asparagusic acids covalently bound through irreversible triazole linkages |  | 14.9 ± 0.5
